What all share (type): cell-based
The test system of one test is gene editing with dCas9. Put plainly: Screen of 322 new SSAP proteins, gene editing activity with dCas9 (Table 5). Further details: dCas9 with SSAP activity: scale not given here. The method, boiled down: (§1)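 Synthetic SSAP candidates, identified computationally, were tested in editing screens using both Cas9 and dCas9.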
In another test the test system is gene editing with Cas9. Put plainly: Screen of 322 new SSAP proteins, gene editing activity with Cas9 (Table 5). Further details: Cas9 with SSAP activity: scale not given here. In short, it runs like this: as §1
For test [1], the system named is gene editing with Cas9 and dCas9. Put plainly: Screen of 322 new SSAP proteins, activity across all experiments (Cas9 and dCas9, Table 5). Further details: scale not given here. In short, it runs like this: as §1

B1: SSAP_151: SEQ ID NO: 320; Mammaliicoccus (protein, listed as Mammaliicoccus sp.)
chain: ATNESIKNQVASRKKNEVQNKSPKTQLNDLLIKMGPEIQRALPKHMDADRMARIAMTAVSTTPKLLECDQMSFIGALMQASQLGVEPNTGLGQAYLIPYGGKVQFQLSYKGLIDLATRSGQYKAIYAHEVFPNDEFNYQYGLFKNLEHIPSQEPEGEPIGYYAVYHLKNGGYDFVYWTRERVDKHAKDFSQAVQKGWTSPWKTNYDAMAKKTVLKEVLKYAPKSIEMNKAVNSDSTIKDEINEDMSSVIDITDYEEVNDQQEEKKEESK
In the case of B1, in the test with gene editing with dCas9, the “dCas9 with SSAP activity” value is listed as −1.257 and the “dCas9 with SSAP activity (normalized)” value is listed as −0.422. Moreover, in the test with gene editing with Cas9, the “Cas9 with SSAP activity” value is given as −4.713 and the “Cas9 with SSAP activity (normalized)” value was −0.683. Further, in test [1], the “Activity across all experiments” value was −2.985.

B2: SSAP_308: SEQ ID NO: 477; uncultured organism (protein)
chain: SNELQNIKPEVFGEVEDKLGSLADNNGIDLPENYSARNALKQAYLKLQSKDEPVFDKYKDETIYNALLDTLTQGLNPGKDQVYYIGYGNHLTAQKSYFGNIALAKRMAGVQEVSSNVILEGDEVDISIERGQQVIESHDRNFDSMDGQVKGAYAVISFEDERKDKYEIMTLKELKQAWAQGKSFGGNGKSPHHKFTKEMAKKTVINRALKPLIKASDDSGLIKEKPKLEKLKDGQQERTEGEKIEEVDVDKEEVVEVDYDV
modifications: uncultured organism
In the case of B2, in the test on gene editing with dCas9, the “dCas9 with SSAP activity” value is reported as −1.277 and the “dCas9 with SSAP activity (normalized)” value is recorded as −1.011. In the test with gene editing with Cas9, the “Cas9 with SSAP activity” value is given as −0.693 and the “Cas9 with SSAP activity (normalized)” value is −1.286. The “Activity across all experiments” value in test [1] is recorded as −0.985.

B3: SSAP_59: SEQ ID NO: 228 (protein)
chain: SEIQQQAEAQTQAHPTAVLDDYRGAIASVAPPGTNIDLFIRMTKSNVNRSDEIVAAVKRNPGLFMQAVMDSAALGHIPGSEYYYLTPRRDGISGIESWKGVAKRIFNTGRYQRIVCEVVYEGEQWEFQPGEDLKPKHVIDWDARQVGSKVRFTYAYAVDFEGNPSTVAVCTKLDLDKAQKQSRGKVWDQWYEQMAKKTAIKRLEDFVDTSAVDLRADGSSRRHSAEVAE
Turning to B3, in the test on gene editing with dCas9, the “dCas9 with SSAP activity” value is given as −1.201 and the “dCas9 with SSAP activity (normalized)” value was −0.336. In the test on gene editing with Cas9, the “Cas9 with SSAP activity” value is listed as 0.218 and the “Cas9 with SSAP activity (normalized)” value stood at 0.538. In test [1], the “Activity across all experiments” value is −0.491.

B4: SSAP_117: SEQ ID NO: 286; Enterocloster bolteae (protein, listed as Enterocloster bolteae)
chain: GVNVKHELEQRAAGQGASVRLTKNMTIVDMVKALEPEIRRALPAVLTPERFTRMALSSINNTPELAECTPMSFIAALLNAAQLGLEPNTPLGQAYLIPYKNKGKLECQFQLGYKGLIDLAYRTGQVQIIQAQVVREFDSFEYQYGLDSKLVHKPGEGARGEITYVYGLFKLSNGGYGFEVSNKTEMDTFAARYSKSFGSKYSPWTEDYESMAKKTVIKRVLKYAPISSDFQKALSMDETIKTGIAVDMSEIRNECLPEEAGSEAA
For B4, in the test on gene editing with dCas9, the “dCas9 with SSAP activity” value is given as −1.263 and the “dCas9 with SSAP activity (normalized)” value is −0.179. Moreover, in the test on gene editing with Cas9, the “Cas9 with SSAP activity” value is listed as −4.474 and the “Cas9 with SSAP activity (normalized)” value was −1.192. Moreover, the “Activity across all experiments” value in test [1] is on record as −2.868.

B5: SSAP_153: SEQ ID NO: 322; Staphylococcus intermedius (protein, listed as Staphylococcus intermedius)
chain: ANANSFKEQVSKNEVQETNNEKPKGPRQQVSDLLERMAPEIQKALPSHMSAERMARIAMTAISSNPQLLECNPRSLIGALLQASQIGLEPNTALGQAYLIPYYNHKKKEFEAQLQLSYLGLIELATRTGQYKAIYAHEVYKEDEFYYEYGLHKNLVHKPVDDPNGEPVGYYAVYHLQNGGFDFAYWTKNKIELHAGNYSKAVQKGWNSPWKTDFNAMAKKTVLKDLLKYAPKSIEISQAVGSDSKVTEINKQGEIIDITEYGQEALEG
Consider B5, for which, in the test with gene editing with dCas9, the “dCas9 with SSAP activity” value was −1.534 and the “dCas9 with SSAP activity (normalized)” value is listed as −0.179. For the same molecule, in the test with gene editing with Cas9, the “Cas9 with SSAP activity” value is −2.201 and the “Cas9 with SSAP activity (normalized)” value is recorded as −0.296. Also, in test [1], the “Activity across all experiments” value is recorded as −1.867.

B6: SSAP_19: SEQ ID NO: 188 (protein)
chain: NTPTMKRKFEEVLHENANAFMSNVMTLVSNDSYLAESEPMSILSGALTAATLNLGLDKNLGYAYLVPFNTKNKQTGKWERKAQFILGYKGYIQLAQRSGKYKALNVIEVYEGELLSWNRLTEEFEFDPNGRQSDDVIGYVGYFELLNGFKKTVYWTKQEIEAHRIANSKDKEKTKLSGVWATDYNAMARKTVLRNMLSKWGILSIEMQEATTSDEKVQQMQEDGNIISETEVEENTTMKTAEVINEADSDSLNQTDLFDTKNPPLE
Consider B6, for which, in the test on gene editing with dCas9, the “dCas9 with SSAP activity” value was −1.396 and the “dCas9 with SSAP activity (normalized)” value is recorded as −0.389. Further, in the test with gene editing with Cas9, the “Cas9 with SSAP activity” value is −0.298 and the “Cas9 with SSAP activity (normalized)” value was −0.329. Further, in test [1], the “Activity across all experiments” value is listed as −0.847.

B7: SSAP_92: SEQ ID NO: 261; Edwardsiella piscicida (protein, listed as Edwardsiella piscicida)
chain: TNNQQPPIATADLQKAQSQAPAVKPDQKLINFINQPSMKGQIAAALPRHMAPDRMIRIITTEIRKTPALATCDMQSFIGSVVQCSQLGLEPGGALGHAYLLPFGNGKAKSGQSNVQLIIGYRGMIDLARRSGQIVSISARTVRDGDQFHYEYGLDETLKHVPGDNESSPITHVYAVAKLKDGGVQFEVMTFNQIEKVRGQSKAGNNGPWQTHWEEMAKKTVIRRLFKYLPVSIEMQKAVILDEKAEANIDQENASVISAEFSVVED
Turning to B7, in the test on gene editing with dCas9, the “dCas9 with SSAP activity” value is on record as −1.516 and the “dCas9 with SSAP activity (normalized)” value is −0.177. In addition, in the test on gene editing with Cas9, the “Cas9 with SSAP activity” value worked out at 2.341 and the “Cas9 with SSAP activity (normalized)” value turned out to be 2.795. In test [1], the “Activity across all experiments” value stood at 0.412.

B8: SSAP_111: SEQ ID NO: 280; Siminovitchia fordii (protein, listed as Siminovitchia fordii)
chain: ATNQDIKNQLANKANGNKPASPANTIAAYLKKMGPEIEKALPKHMDADRLARIALTTIRTTPKLLECNISSLMGAVMQSAQLGLEPGLIGHCYIIPYGKEATFIIGYKGMIDLARRSGQIQNIYAHAVFENDEFDYALGLHPKLEHKPAGSNRGEIIGAYAVAHFKDGGYQFEYMAKEDIEKRKSRSAAARSKHSPWATDYEEMAKKTVIRHMWKYLPISVEIQQQAIQDEVVRKDVTSEPEFIDMEDMPEVEEGQSEESEQVEAPFD
Regarding B8, in the test on gene editing with dCas9, the “dCas9 with SSAP activity” value is −1.417 and the “dCas9 with SSAP activity (normalized)” value is −0.419. Further, in the test with gene editing with Cas9, the “Cas9 with SSAP activity” value is listed as 0.173 and the “Cas9 with SSAP activity (normalized)” value stood at 0.129. The “Activity across all experiments” value in test [1] was −0.622.

B9: SSAP_119: SEQ ID NO: 288; Bacillus albus (protein, listed as Bacillus albus)
chain: ATNEKLKNQLANRKESAPATPEQTVEAYMKKMAPKMAEVLPKHMDMGRMSRMALTTMRTSPKLLNCTVSSLMGAVMQAVQLGLEPGLLGHCYILPYKGEATFIIGYKGMIDLARRSGHIQSIYAHAVHENDEFDYELGLHPKLEHKPVHGDRGAFVGAYAVAHFKDGGYQMEFMPKSEIEKRRKRSASANSSFSPWKSDYEEMAKKTVIRYIFKYLPISIEVQLLAAQDEVVRKDITEEPEFIEADPIDVEQPTTEGDGQQEFSIEE
For B9, in the test on gene editing with dCas9, the “dCas9 with SSAP activity” value is listed as −1.189 and the “dCas9 with SSAP activity (normalized)” value was −0.361. For the same molecule, in the test on gene editing with Cas9, the “Cas9 with SSAP activity” value is reported as −0.911 and the “Cas9 with SSAP activity (normalized)” value is −3.635. In addition, in test [1], the “Activity across all experiments” value is on record as −1.050.

For the origin of these results see patent US20250034594A1, “RNA-GUIDED GENOME RECOMBINEERING AT KILOBASE SCALE” (THE BOARD OF TRUSTEES OF THE LELAND STANFORD JUNIOR …, priority 2021, published 2025).
